Test results published in US20070282095A1 (published 2007).

Assays:
[1] = target: 203A205G thrombin (glycine at position 203 in B chain substituted by alanine, serine at position 205 … (human, UniProt P00734 315-363; P00734 364-622); experiment: IAsys biosensor, FAST FIT program; derivative immobilized
Protocol: (§1) Subsequently, 0.2 ml of 1 M ethanol amine (pH 8) was added thereto to perform a blocking treatment.

[2] = target: 77E203A205G thrombin (lysine 77 to glutamic acid, glycine 203 to alanine, serine 205 to glycine in B chain) (human, UniProt P00734 315-363; P00734 364-622); experiment: as above
Protocol: as §1

B1: fibrinogen (other)
chain 1: ADSGEGDFLAEGGGVRGPRVVERHQSACKDSDWPFCSDEDWNYKCPSGCRMKGLIDEVNQDFTNRINKLKNSLFEYQKNNKDSHSLTTNIMEILRGDFSSANNRDNTYNRVSEDLRSRIEVLKRKVIEKVQHIQLLQKNVRAQLVDMKRLEVDIDIKIRSCRGSCSRALAREVDLKDYEDQQKQLEQVIAKDLLPSRDRQHLPLIKMKPVPDLVPGNFKSQLQKVPPEWKALTDMPQMRMELERPGGNEITRGGSTSYGTGSETESPRNPSSAGSWNSGSSGPGSTGNRNPGSSGTGGTATWKPGSSGPGSTGSWNSGSSGTGSTGNQNPGSPRPGSTGTWNPGSSERGSAGHWTSESSVSGSTGQWHSESGSFRPDSPGSGNARPNNPDWGTFEEVSGNVSPGTRREYHTEKLVTSKGDKELRTGKEKVTSGSTTTTRRSCSKTVTKTVIGPDGHKEVTKEVVTSEDGSDCPEAMDLGTLSGIGTLDGFRHRHPDEAAFFDTASTGKTFPGFFSPMLGEFVSETESRGSESGIFTNTKESSSHHPGIAEFPSRGKSSSYSKQFTSSTSYNRGDSTFESKSYKMADEAGSEADHEGTHSTKRGHAKSRPV
chain 2: QGVNDNEEGFFSARGHRPLDKKREEAPSLRPAPPPISGGGYRARPAKAAATQKKVERKAPDAGGCLHADPDLGVLCPTGCQLQEALLQQERPIRNSVDELNNNVEAVSQTSSSSFQYMYLLKDLWQKRQKQVKDNENVVNEYSSELEKHQLYIDETVNSNIPTNLRVLRSILENLRSKIQKLESDVSAQMEYCRTPCTVSCNIPVVSGKECEEIIRKGGETSEMYLIQPDSSVKPYRVYCDMNTENGGWTVIQNRQDGSVDFGRKWDPYKQGFGNVATNTDGKNYCGLPGEYWLGNDKISQLTRMGPTELLIEMEDWKGDKVKAHYGGFTVQNEANKYQISVNKYRGTAGNALMDGASQLMGENRTMTIHNGMFFSTYDRDNDGWLTSDPRKQCSKEDGGGWWYNRCHAANPNGRYYWGGQYTWDMAKHGTDDGVVWMNWKGSWYSMRKMSMKIRPFFPQQ
chain 3: YVATRDNCCILDERFGSYCPTTCGIADFLSTYQTKVDKDLQSLEDILHQVENKTSEVKQLIKAIQLTYNPDESSKPNMIDAATLKSRKMLEEIMKYEASILTHDSSIRYLQEIYNSNNQKIVNLKEKVAQLEAQCQEPCKDTVQIHDITGKDCQDIANKGAKQSGLYFIKPLKANQQFLVYCEIDGSGNGWTVFQKRLDGSVDFKKNWIQYKEGFGHLSPTGTTEFWLGNEKIHLISTQSAIPYALRVELEDWNGRTSTADYAMFKVGPEADKYRLTYAYFAGGDAGDAFDGFDFGDDPSDKFFTSHNGMQFSTWDNDNDKFEGNCAEQDGSGWWMNKCHAGHLNGVYYQGGTYSKASTPNGYDNGIIWATWKTRWYSMKKTTMKIIPFNRLTIGEGQQHHLGGAKQAGDV
notes: also called Fbgn
B1 gave a Kd [1] of 10.8 nM and a Kd [2] of 190 nM.
